In paper PMC10397247:
Like-named read-outs stand apart in the source and are kept apart here.

What was measured:
[1] = target: T1, 4H3940-AA; assay: two-hybrid library CCmax; conditions: mean of both orientations;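 also: natural log of median RNA to DNA barcode read ratio; higher means stronger binding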
T1 chain: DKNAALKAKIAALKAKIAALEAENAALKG

[2] = target: T2, 4H3409-AA; assay: two-hybrid library CCmax;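 also: natural log of median RNA to DNA barcode read ratio; higher means stronger binding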
T2 chain: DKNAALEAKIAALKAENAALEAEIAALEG

[3] = target: T3, 4H3625-AA; assay: two-hybrid library CCmax; conditions: mean of both orientations;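 also: natural log of median RNA to DNA barcode read ratio; higher means stronger binding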
T3 chain: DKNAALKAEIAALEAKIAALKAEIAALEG

[4] = target: T4, 4H816-AA; assay: two-hybrid library CCmax; conditions: mean of both orientations;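 also: natural log of median RNA to DNA barcode read ratio; higher means stronger binding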
T4 chain: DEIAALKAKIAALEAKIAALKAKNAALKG

[5] = target: T5, 4H775-AA; assay: two-hybrid library CCmax; conditions: mean of both orientations;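 also: natural log of median RNA to DNA barcode read ratio; higher means stronger binding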
T5 chain: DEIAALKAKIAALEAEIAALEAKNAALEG

[6] = target: T6, 4H87-AA; assay: two-hybrid library CCmax; conditions: mean of both orientations;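 also: natural log of median RNA to DNA barcode read ratio; higher means stronger binding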
T6 chain: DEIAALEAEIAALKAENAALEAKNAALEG

[7] = target: T7, 4H510-AA; assay: two-hybrid library CCmax; conditions: mean of both orientations
T7 chain: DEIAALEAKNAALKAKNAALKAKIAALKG

[8] = target: T8, 4H390-AA; assay: two-hybrid library CCmax; conditions: mean of both orientations
T8 chain: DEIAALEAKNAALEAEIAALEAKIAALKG

[9] = target: T9, 4H730-bN; assay: two-hybrid library CCNG1
T9 chain: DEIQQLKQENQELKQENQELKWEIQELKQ

[10] = target: T10, 4H56-bN; assay: two-hybrid library CCNG1
T10 chain: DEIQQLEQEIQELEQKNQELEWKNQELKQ

[11] = target: T11, 4H3297-bN; assay: two-hybrid library CCNG1
T11 chain: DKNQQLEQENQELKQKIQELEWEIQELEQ

[12] = target: T12, 4H949-bN; assay: two-hybrid library CCNG1
T12 chain: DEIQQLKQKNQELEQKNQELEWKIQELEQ

[13] = target: T13, 4H3381-bN; assay: two-hybrid library CCNG1
T13 chain: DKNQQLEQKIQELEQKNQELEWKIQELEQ

[14] = target: T14, 4H3364-bN; assay: two-hybrid library CCNG1
T14 chain: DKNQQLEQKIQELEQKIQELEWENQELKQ

[15] = target: T15, 4H932-bN; assay: two-hybrid library CCNG1
T15 chain: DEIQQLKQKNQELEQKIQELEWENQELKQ

[16] = target: T16, 4H349-bN; assay: two-hybrid library CCNG1
T16 chain: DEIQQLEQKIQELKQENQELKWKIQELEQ

[17] = target: T17, 4H796-bN; assay: two-hybrid library CCNG1
T17 chain: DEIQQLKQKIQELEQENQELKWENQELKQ

[18] = target: T18, 4H406-AA; assay: two-hybrid library CCmax
T18 chain: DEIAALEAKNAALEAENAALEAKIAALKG

[19] = target: T19, 4H963-AA; assay: two-hybrid library CCmax; conditions: mean of both orientations
T19 chain: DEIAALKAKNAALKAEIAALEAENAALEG

[20] = target: T20, 4H688-AA; assay: two-hybrid library CCmax
T20 chain: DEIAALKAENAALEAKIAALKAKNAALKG

[21] = target: GCN2_T; assay: two-hybrid library CCmax
[22] = target: T21, 4H56-AA; assay: two-hybrid library CCmax; conditions: mean of both orientations
T21 chain: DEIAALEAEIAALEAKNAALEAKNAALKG

[23] = target: 4H_GCN4; assay: two-hybrid library CCmax
[24] = target: T22, 4H452-AA; assay: two-hybrid library CCmax; conditions: mean of both orientations
T22 chain: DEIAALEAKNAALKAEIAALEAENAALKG

[25] = target: T23, 4H_BCR; assay: two-hybrid library CCmax; conditions: mean of both orientations
T23 chain: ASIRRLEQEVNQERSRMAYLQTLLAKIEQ

[26] = target: T24, 4H_APH; assay: two-hybrid library CCmax; conditions: mean of both orientations
T24 chain: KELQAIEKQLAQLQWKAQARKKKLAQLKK

[27] = target: T25, 4H3381-AA; assay: two-hybrid library CCmax; conditions: mean of both orientations
T25 chain: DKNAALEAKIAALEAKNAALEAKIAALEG

[28] = target: T26, 4H3165-AA; assay: two-hybrid library CCmax; conditions: mean of both orientations
T26 chain: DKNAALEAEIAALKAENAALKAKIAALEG

[29] = target: T27, 4H710-AA; assay: two-hybrid library CCmax; conditions: mean of both orientations
T27 chain: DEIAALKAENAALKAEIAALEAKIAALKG

[30] = target: T28, 4H3120-AA; assay: two-hybrid library CCmax; conditions: mean of both orientations
T28 chain: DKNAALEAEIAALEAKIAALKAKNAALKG

[31] = target: T29, 4H536-AA; assay: two-hybrid library CCmax; conditions: mean of both orientations
T29 chain: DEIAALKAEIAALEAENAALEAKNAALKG

[32] = target: T30, 4H2725-AA; assay: two-hybrid library CCmax; conditions: mean of both orientations
T30 chain: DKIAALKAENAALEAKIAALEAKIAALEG

[33] = target: T31, 4H2865-AA; assay: two-hybrid library CCmax; conditions: mean of both orientations
T31 chain: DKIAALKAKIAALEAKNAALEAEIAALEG

[34] = target: T32, 4H2438-AA; assay: two-hybrid library CCmax; conditions: mean of both orientations
T32 chain: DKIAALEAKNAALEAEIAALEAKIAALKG

[35] = target: T33, 4H3016-AA; assay: two-hybrid library CCmax; conditions: mean of both orientations
T33 chain: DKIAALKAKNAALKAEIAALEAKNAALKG

[36] = target: T34, 4H2473-AA; assay: two-hybrid library CCmax; conditions: mean of both orientations
T34 chain: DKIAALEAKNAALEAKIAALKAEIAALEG

[37] = target: T35, 4H3395-AA; assay: two-hybrid library CCmax; conditions: mean of both orientations
T35 chain: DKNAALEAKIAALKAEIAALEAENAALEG

[38] = target: T36, 4H310-AA; assay: two-hybrid library CCmax; conditions: mean of both orientations
T36 chain: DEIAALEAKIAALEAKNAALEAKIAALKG

[39] = target: T37, 4H3130-AA; assay: two-hybrid library CCmax; conditions: mean of both orientations
T37 chain: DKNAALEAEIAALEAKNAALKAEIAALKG

[40] = target: T38, 4H891-AA; assay: two-hybrid library CCmax; conditions: mean of both orientations
T38 chain: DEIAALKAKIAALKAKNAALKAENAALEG

[41] = target: T39, 4H3697-AA; assay: two-hybrid library CCmax; conditions: mean of both orientations
T39 chain: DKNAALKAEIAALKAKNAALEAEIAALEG

[42] = target: T40, 4H458-AA; assay: two-hybrid library CCmax; conditions: mean of both orientations
T40 chain: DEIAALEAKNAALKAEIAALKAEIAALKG

[43] = target: T41, 4H930-AA; assay: two-hybrid library CCmax; conditions: mean of both orientations
T41 chain: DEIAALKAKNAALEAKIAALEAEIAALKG

[44] = target: T42, 4H3753-AA; assay: two-hybrid library CCmax; conditions: mean of both orientations
T42 chain: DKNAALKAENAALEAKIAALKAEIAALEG

[45] = target: T43, 4H2649-AA; assay: two-hybrid library CCmax; conditions: mean of both orientations
T43 chain: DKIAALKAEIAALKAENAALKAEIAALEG

[46] = target: T44, 4H2389-AA; assay: two-hybrid library CCmax
T44 chain: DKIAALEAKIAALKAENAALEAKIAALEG

[47] = target: T45, 4H3410-AA; assay: two-hybrid library CCmax; conditions: mean of both orientations
T45 chain: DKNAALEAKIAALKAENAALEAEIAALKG

[48] = target: T46, 4H570-AA; assay: two-hybrid library CCmax; conditions: mean of both orientations
T46 chain: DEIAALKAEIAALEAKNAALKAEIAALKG

[49] = target: T47, 4H797-AA; assay: two-hybrid library CCmax; conditions: mean of both orientations
T47 chain: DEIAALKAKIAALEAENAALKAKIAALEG

[50] = target: T48, 4H485-AA; assay: two-hybrid library CCmax
T48 chain: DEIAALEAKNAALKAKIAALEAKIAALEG

[51] = target: T49, 4H745-AA; assay: two-hybrid library CCmax; conditions: mean of both orientations
T49 chain: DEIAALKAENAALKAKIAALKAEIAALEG

[52] = target: T50, 4H94-AA; assay: two-hybrid library CCmax; conditions: mean of both orientations
T50 chain: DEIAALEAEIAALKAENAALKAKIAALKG

[53] = target: T51, 4H629-AA; assay: two-hybrid library CCmax; conditions: mean of both orientations
T51 chain: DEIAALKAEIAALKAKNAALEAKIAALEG

[54] = target: T52, 4H909-AA; assay: two-hybrid library CCmax; conditions: mean of both orientations
T52 chain: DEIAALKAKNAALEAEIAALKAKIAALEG

[55] = target: T53, 4H3865-AA; assay: two-hybrid library CCmax; conditions: mean of both orientations
T53 chain: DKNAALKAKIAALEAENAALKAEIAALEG

[56] = target: T54, 4H3590-AA; assay: two-hybrid library CCmax; conditions: mean of both orientations
T54 chain: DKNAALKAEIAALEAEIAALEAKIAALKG

[57] = target: T55, 4H850-AA; assay: two-hybrid library CCmax; conditions: mean of both orientations
T55 chain: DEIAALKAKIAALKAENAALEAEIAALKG

[58] = target: T56, 4H2698-AA; assay: two-hybrid library CCmax; conditions: mean of both orientations
T56 chain: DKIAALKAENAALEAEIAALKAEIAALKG

[59] = target: T57, 4H3009-AA; assay: two-hybrid library CCmax; conditions: mean of both orientations
T57 chain: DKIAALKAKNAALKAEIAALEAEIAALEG

[60] = target: T58, 4H967-AA; assay: two-hybrid library CCmax; conditions: mean of both orientations
T58 chain: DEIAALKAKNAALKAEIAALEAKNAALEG

[61] = target: T59, 4H953-AA; assay: two-hybrid library CCmax
T59 chain: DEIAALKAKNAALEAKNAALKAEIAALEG

[62] = target: T60, 4H591-bH; assay: two-hybrid library CCNG1
T60 chain: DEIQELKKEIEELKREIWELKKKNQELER

[63] = target: T61, 4H626-bH; assay: two-hybrid library CCNG1
T61 chain: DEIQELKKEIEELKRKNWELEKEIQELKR

[64] = target: T62, 4H906-bH; assay: two-hybrid library CCNG1
T62 chain: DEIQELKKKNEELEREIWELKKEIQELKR

Sequence of 4H_GCN4 (chain, as listed by the source): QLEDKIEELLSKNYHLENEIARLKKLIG

## DKNAALEAKIAALKAENAALEAEIAALEG [4H3409-AA]
[1]
  interaction score: -1.12
[2]
  interaction score: -1.02
[3]
  interaction score: -0.625
[4]
  interaction score: -1.37
[5]
  interaction score: -1.25
[6]
  interaction score: -1.93
[7]
  interaction score: 0.697
[8]
  interaction score: -1.28

## DKNQQLEQENQELKQKIQELEWEIQELEQ [4H3297-bN]
[9]
  interaction score: -0.799
[10]
  interaction score: -0.798
[11]
  interaction score: -0.0469
[12]
  interaction score: -1.29
[13]
  interaction score: -1.01
[14]
  interaction score: -0.913
[15]
  interaction score: -1.21
[16]
  interaction score: -2.11
[17]
  interaction score: -0.556

## DEIAALEAKNAALEAENAALEAKIAALKG [4H406-AA]
[18]
  interaction score: -0.644
[19]
  interaction score: -1.6
[20]; mean of both orientations
  interaction score: -1.54
[21]
  interaction score: -1.43
[22]
  interaction score: -1.47
[23]
  interaction score: -1.67
[24]
  interaction score: -0.548
[25]
  interaction score: -2.11
[26]
  interaction score: -1.29

## DKIAALEAKIAALKAENAALEAKIAALEG [4H2389-AA]
[27]
  interaction score: -0.842
[28]
  interaction score: 0.858
[29]
  interaction score: 0.392
[30]
  interaction score: -0.79
[31]
  interaction score: -0.282
[32]
  interaction score: -0.942
[33]
  interaction score: 1.02
[34]
  interaction score: -0.27
[35]
  interaction score: 0.227
[36]
  interaction score: -1.3
[37]
  interaction score: -1.54
[38]
  interaction score: 1.8
[39]
  interaction score: 1.81
[40]
  interaction score: -0.959
[41]
  interaction score: -1.74
[42]
  interaction score: -0.364
[43]
  interaction score: -0.305
[44]
  interaction score: -1.26
[45]
  interaction score: 1.07
[46]
  interaction score: 2.02
[47]
  interaction score: -1.2
[48]
  interaction score: 1.65
[49]
  interaction score: 1.3
[50]
  interaction score: 0.153
[51]
  interaction score: -1.25
[52]
  interaction score: 1.99
[53]
  interaction score: -0.106
[54]
  interaction score: -1.35
[55]
  interaction score: -0.601
[56]
  interaction score: -0.0915
[57]
  interaction score: -0.804
[58]
  interaction score: -0.843
[59]
  interaction score: 1.53

## DEIAALKAKNAALEAKNAALKAEIAALEG [4H953-AA]
[60]
  interaction score: -1.73
[61]
  interaction score: -1.02

## DEIQELKKEIEELKREIWELKKKNQELER [4H591-bH]
[62]
  interaction score: 1.58
[63]
  interaction score: -0.53
[64]
  interaction score: -0.784

## DEIAALKAENAALEAKIAALKAKNAALKG [4H688-AA]
[19]
  interaction score: 1.46
[20]
  interaction score: -1.23
